How the values were obtained:
[1] = target: T1, influenza A/WSN/33 (H1N1) NP protein (influenza virus A/WSN/33 (H1N1), UniProt P15682 1-498)
[2] = target: T1, influenza A/WSN/33 (H1N1) NP protein; assay: phage display panning (Ph.D.-7) on NP coated on MaxiSorp plates, 5 rounds

T1 sequence (P15682 whole entry): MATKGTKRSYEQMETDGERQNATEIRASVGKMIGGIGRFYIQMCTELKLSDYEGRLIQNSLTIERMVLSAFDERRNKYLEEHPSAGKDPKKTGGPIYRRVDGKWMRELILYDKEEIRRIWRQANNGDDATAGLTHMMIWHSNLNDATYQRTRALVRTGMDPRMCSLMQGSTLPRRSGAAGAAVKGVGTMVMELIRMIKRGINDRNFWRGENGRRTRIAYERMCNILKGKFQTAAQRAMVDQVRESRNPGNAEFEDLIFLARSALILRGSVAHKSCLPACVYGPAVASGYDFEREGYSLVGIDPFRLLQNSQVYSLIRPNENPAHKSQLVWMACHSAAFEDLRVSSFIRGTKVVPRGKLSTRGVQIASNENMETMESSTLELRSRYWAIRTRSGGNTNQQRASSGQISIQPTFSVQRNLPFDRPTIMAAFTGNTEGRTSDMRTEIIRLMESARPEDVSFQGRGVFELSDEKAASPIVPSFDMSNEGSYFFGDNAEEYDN

Row | Binder | fold increase of the avidity (OPD, nm) over HAV-ANP 1 and PapMV VLPs [1] [fold] | fold increase of the signal over PapMV HAV-ANP1 and PapMV VLPs [1] [fold] | binding result [2]
1 | PapMV HAV-ANP2 (designed binder) MASTPNIAFPAITQEQMSSIKVDPTSNLLPSQEQLKSVSTLMVAAKVPAASVTTVALELVNFCYDNGSSAYTTVTGPSSIPEISLAQLASIVKASGTSLRKFCRYFAPIIWNLRTDKMAPANWEASGYKPSAKFAAFDFFDGVENPAAMQPPSGLTRSPTQEERIANATNKQVHLFQAAAQDNNFASNSAFITKGQISGSTPTIQFLPPPETSKVWQIPHTRHHHHHH | ~5 | 5 | 
2 | FHEFWPT (also called ANP1) |  |  | binds
